Data reported in patent publication US10653749B2, “Targeting GIV-GEF-GI signaling for treating diverse diseases” (The Regents of the University of California, priority 2015, dated 2020).

What was measured:
HeLa cells [1] = assay: Actin cytoskeleton remodeling in HeLa cells (phalloidin staining, confocal); type: cell-based; conditions: ~400 nM TAT peptide
Procedure: HeLa cell lines were fixed at room temperature with 3% paraformaldehyde for 20-25 min, permeabilized (0.2% Triton X-100) for 45 min and incubated for 1 h each with primary and then secondary antibodies as described (7). Dilutions of antibodies and reagents were as follows: His (1:500); Phalloidin (1:1,000); DAPI (1: 2,000); secondary goat anti-rabbit (594) and goat anti-mouse (488) Alexa-conjugated antibodies (1:500). Coverslips were mounted with ProLong Gold (Life Technologies). Cells were imaged on a Leica SPE confocal microscope using a 63× oil objective using 488, 561, and 405 laser lines for excitation. Images were scanned using a line-average of 3. All images were processed using ImageJ software and assembled into figure panels using Photoshop and Illustrator (Adobe).
For TAT-protein transduction, cells were incubated with 400-800 nM of the TAT-proteins for 30 min at 37° C. prior to three washes with PBS and addition of fresh growth media. For analysis of EGF signaling, subconfluent monolayers of HeLa cells were treated with TAT proteins for 30 min, washed with PBS, and subsequently stimulated with EGF (50 nM) at 4 h after TAT transduction. For scratch-wound assays, HeLa monolayers were treated with TAT proteins before and at 12 h after wounding. For cancer cell invasion assays, highly invasive MDA MB 231 breast cancer cells were plated in 6-well dishes, treated with TAT-peptides for 30 min and subsequently lifted and placed in transwell chamber in the presence of serum-free media. For L×2 myofibroblast activation assays, cells were first treated with TAT-proteins for 30 min, starved in serum-free media, and subsequently treated with 1.5 ng/ml TGF-β for 24 h. TAT-protein transduction was repeated every 8 h during the course of TGFβ stimulation (total 3 treatments). For assays involving insulin stimulation of TAT-treated L6 myotubes, such stimulation was carried out 90 min after transduction. In each case, whole cell lysates prepared from cells in duplicate wells were analyzed for signaling pathways and TAT-protein uptake by immunoblotting.

HeLa cells [2] = assay: Scratch-wound 2D cell migration assay; type: cell-based; conditions: compared to mock treatment, 12 h and 24 h
Procedure: Scratch-wound assays were done as described (49). Briefly, monolayer cultures (100% confluent) of HeLa cells were incubated first in a 0.2% serum media over night. The following morning, monolayers of HeLa cells were first transduced with TAT peptides for 30 min, then washed three times with PBS and placed again in a 0.2% serum media for 1 h 30 min before scratch-wounding. The wounds were created using a 20 μL pipette tip. Transduction with TAT peptides was repeated at 12 h into the wound healing assay (a total of two times). Healing wounds were monitored by phase-contrast microscopy over the next 24 h and serially photographed using a Canon digital SLR camera. To quantify cell migration (expressed as percent of wound closure) the acquired images were analyzed using Image J software to measure open wound area. Results were expressed as % closure by calculating the difference between the wound area at 0 h, 12 h and that at 24 h divided by the area at 0 h×100. Invasion assays were performed using Corning Transwell plates according to the manufacturer's protocol.
Scratch-wound assays were done as described previously (13). […] Healing wounds were monitored by phase-contrast microscopy over the next 24 h and migration index was quantified (expressed as % wound closure) by measuring the wounded area using Image J software.

L6 myotubes = assay: Fluorometric 2-deoxyglucose uptake assay after insulin stimulation; type: cell-based, rat; conditions: for insulin-stimulated glucose uptake in the basal state: L6 myotubes without PA; for reversal of PA-induced IR (insulin stimulated glucose uptake): PA-treated L6 myotubes
Procedure: Transfection was carried out with GeneJuice (Novagen) for DNA plasmids or Oligofectamine (Invitrogen) for siRNA oligos according to manufacturer's protocols. Silencer negative Control scrambled (Scr) siRNA used as control was purchased from Ambion and the previously validated (Enomoto et al., 2005) GIV siRNA sequence used was custom-ordered from Dharmacon. For TAT-construct transduction, cells were incubated with 300-800 nM of the TAT-proteins for 30 min at 37° C. prior to three washes with PBS and addition of fresh growth media. For assays involving insulin (Novagen) stimulation of TAT-treated cells, such stimulation was carried out 90 min after transduction.
Unless otherwise indicated, serum starvation of cells for use in experiments involving insulin stimulation was carried out by growing cells overnight in the presence of no serum (i.e., 0% FBS) in the case of Cos7 and L6 cells, or in the presence of 0.2% FBS in the case of HeLa cells. To induce IR, cells were pre-treated with Sodium Palmitate (PA; Sigma-Aldrich) (0.5 mM, stock solution at 5 mM/5% FFA-free BSA in ethanol) or vehicle control (5% FFA-free BSA in ethanol) for 16 h. To reverse IR with TZDs, cells were treated with 50 μM Pioglitazone (Pio) (Sigma-Aldrich) or DMSO (vehicle control) for 18 h prior to stimulation with 100 nM insulin. Treatment with PKCθ pseudo-substrate inhibitor (Santa Cruz Biotechnologies) was performed at 10 μM for 16 h.
Glucose uptake assays were performed without the use of radioisotopes as described previously (Yamamoto et al., 2006). HeLa and L6 cells grown in 6-well plates were stimulated with insulin in KRH Buffer [50 mM HEPES, 137 mM NaCl, 4.7 mM KCl, 1.85 mM CaCl2, 1.3 mM MgSO4, and 0.1% (w/v) BSA-FFA free, pH 7.4]. Cells were incubated with 1 mM 2-deoxyglucose (2-DG) for 20 min, washed, and subsequently lysed with 0.1 N NaOH. The lysates were transferred into eppendorf tubes and samples were incubated in a water bath maintained at 80° C. for 45 min to degrade endogenous NAD(P)H and NAD(P)^+. An equal volume each of 0.1 N HCl and Triethanolamine (200 mM TEA, pH 8.1) buffer were added to each tube. Samples were subsequently mixed with assay solution [50 mM TEA, 0.02% BSA-FFA free, 10 μM NAD(P)^+, 0.2 U/ml Diaphorase, 6 nM Resazurin sodium, 15 U/ml G6PDH (Santa Cruz Biotechnologies)] and incubated at 37° C. for 90 min. Fluorescence intensity (λex=550 nM, λem=590 nM) was determined using a Tecan Inifinite M1000 PRO and normalized to total protein, as determined using BCA assay (Thermo Scientific).

Molecule	actin remodeling / actin stress fibers (HeLa cells [1])	actin remodeling / actin stress fibers (HeLa cells [1]; listed as WT)	2D-migration and wound closure (HeLa cells [2])	insulin-stimulated glucose uptake in the basal state (L6 myotubes)	reversal of PA-induced IR (insulin stimulated glucose uptake) (L6 myotubes)	reversal of PA-induced IR (insulin stimulated glucose uptake) (L6 myotubes; listed as GIV-CT-WT)	effectiveness in reversing PA-induced IR compared with Pio (L6 myotubes; ~800 nM of WT peptide)	2D-migration and wound closure (HeLa cells [2]; listed as FA)
TAT-GIV-CT-WT: Recombinant cell-permeable fusion of TAT-PTD, His and HA tags, linker and human GIV C-terminus (aa 1660-1870), wild type; SEQ ID NO: 2 (protein) MRGSHHHHHHGMASMTGGQQMGRDLYDDDDKDRWGSKLGYGRKKRRQRRRGGSTMSGYPYDVPDYAGSMGGSGHSGETLESRHHKIKTGSPGSEVVTLQQFLEESNKLTSVQIKSSSQENLLDEVMKSLSVSSDFLGKDKPVSCGLARSVSGKTPGDFYDRRTTKPEFLRPGPRKTEDTYFISSAGKPTPGTQGKIKLVKESSLSRQSKDSNPYATLPRASSVISTAEGTTRRTSIHDFLTKDSRLPISVDSPPAAADSNTTAASNVDKVQESRNSKSRSREQQSS	triggered actin remodeling	not	enhances	unaffected	effectively reverse	effectively reversed	as effective as 50 μM Pio	–
TAT-GIV-CT-FA: GEF-deficient F1685A mutant of the TAT-GIV-CT peptide, dominant-negative; SEQ ID NO: 3 (protein) MRGSHHHHHHGMASMTGGQQMGRDLYDDDDKDRWGSKLGYGRKKRRQRRRGGSTMSGYPYDVPDYAGSMGGSGHSGETLESRHHKIKTGSPGSEVVTLQQALEESNKLTSVQIKSSSQENLLDEVMKSLSVSSDFLGKDKPVSCGLARSVSGKTPGDFYDRRTTKPEFLRPGPRKTEDTYFISSAGKPTPGTQGKIKLVKESSLSRQSKDSNPYATLPRASSVISTAEGTTRRTSIHDFLTKDSRLPISVDSPPAAADSNTTAASNVDKVQESRNSKSRSREQQSS	suppressed the formation of actin stress fibers	–	–	significantly inhibited	not	–	–	delayed wound closure and not
